# In US20220010021A1 (Sanofi, published 2022):
# Target: human FGFR1c + KLB receptor complex on HEK293 iLite FGF21 reporter cells (human, UniProt P11362 22-822; Q86Z14 1-1044)
# Assay: cell-based or functional assay
# Chain of human FGFR1c + KLB receptor complex on HEK293 iLite FGF21 reporter cells (P11362 22-822, chain 1 of 2): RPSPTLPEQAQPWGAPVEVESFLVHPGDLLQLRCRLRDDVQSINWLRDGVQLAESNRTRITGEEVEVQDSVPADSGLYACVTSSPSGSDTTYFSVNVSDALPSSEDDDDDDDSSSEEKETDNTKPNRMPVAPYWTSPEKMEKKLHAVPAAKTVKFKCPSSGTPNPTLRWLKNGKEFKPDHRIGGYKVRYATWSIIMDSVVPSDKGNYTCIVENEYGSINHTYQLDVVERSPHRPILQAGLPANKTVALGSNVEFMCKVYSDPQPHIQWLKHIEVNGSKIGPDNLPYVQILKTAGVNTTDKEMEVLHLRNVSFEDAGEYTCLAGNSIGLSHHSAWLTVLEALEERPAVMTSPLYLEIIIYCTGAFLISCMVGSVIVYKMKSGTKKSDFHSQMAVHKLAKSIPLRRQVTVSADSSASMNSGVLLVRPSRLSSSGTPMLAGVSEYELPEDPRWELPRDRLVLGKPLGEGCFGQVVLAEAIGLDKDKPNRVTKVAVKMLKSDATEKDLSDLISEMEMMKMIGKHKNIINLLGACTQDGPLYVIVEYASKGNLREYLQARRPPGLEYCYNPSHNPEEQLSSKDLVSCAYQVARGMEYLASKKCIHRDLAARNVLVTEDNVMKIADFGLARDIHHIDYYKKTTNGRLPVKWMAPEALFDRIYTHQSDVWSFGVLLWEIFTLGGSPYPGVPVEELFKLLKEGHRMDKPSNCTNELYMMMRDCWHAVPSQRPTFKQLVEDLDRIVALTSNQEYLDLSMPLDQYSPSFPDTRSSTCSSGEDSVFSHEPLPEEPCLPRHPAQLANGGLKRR
# Chain of human FGFR1c + KLB receptor complex on HEK293 iLite FGF21 reporter cells (Q86Z14 whole entry, chain 2 of 2): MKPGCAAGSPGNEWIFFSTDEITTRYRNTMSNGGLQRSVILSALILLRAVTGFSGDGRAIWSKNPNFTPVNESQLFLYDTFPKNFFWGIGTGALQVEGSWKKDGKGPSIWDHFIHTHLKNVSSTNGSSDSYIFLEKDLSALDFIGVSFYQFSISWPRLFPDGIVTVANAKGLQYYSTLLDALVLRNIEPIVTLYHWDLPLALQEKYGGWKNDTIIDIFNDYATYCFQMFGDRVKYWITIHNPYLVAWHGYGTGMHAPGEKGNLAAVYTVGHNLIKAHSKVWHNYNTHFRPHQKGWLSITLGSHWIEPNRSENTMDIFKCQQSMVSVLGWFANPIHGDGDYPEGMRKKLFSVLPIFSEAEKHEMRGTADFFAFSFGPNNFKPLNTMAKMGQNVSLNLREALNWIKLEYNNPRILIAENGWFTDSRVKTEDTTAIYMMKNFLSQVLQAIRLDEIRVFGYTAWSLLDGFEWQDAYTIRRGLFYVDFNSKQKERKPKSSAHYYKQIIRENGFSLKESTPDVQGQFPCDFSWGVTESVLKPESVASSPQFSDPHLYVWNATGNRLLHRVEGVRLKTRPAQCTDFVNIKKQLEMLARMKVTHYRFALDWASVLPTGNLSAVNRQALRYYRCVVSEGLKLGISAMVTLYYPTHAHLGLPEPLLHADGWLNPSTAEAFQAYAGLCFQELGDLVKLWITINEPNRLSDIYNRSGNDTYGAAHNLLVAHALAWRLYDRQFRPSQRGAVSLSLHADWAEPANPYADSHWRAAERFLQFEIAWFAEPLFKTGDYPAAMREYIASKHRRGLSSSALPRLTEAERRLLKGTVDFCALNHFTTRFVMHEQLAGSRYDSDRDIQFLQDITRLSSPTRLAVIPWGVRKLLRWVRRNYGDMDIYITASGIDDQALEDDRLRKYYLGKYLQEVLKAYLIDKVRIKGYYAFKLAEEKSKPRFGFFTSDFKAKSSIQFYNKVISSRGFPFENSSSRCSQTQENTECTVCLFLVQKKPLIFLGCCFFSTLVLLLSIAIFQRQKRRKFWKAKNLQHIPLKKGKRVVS
row,Binder,EC50
1,"Ab0389 (antibody, IgG4, V domains shown) VH: QVTLKESGPVLVKPTETLTLTCTVSGFSLNNARVGVSWIRQPPGKALEWLASIWSNDEKSYSTSLKSRLTISKDTSKSQVVLTMTNMDPVDTATYYCARSVVTGGYYYEGMDVWGQGTTVTVSS VL: CYVLTQPPSVSVAPGQTARITCGGNNIGSESVHWYQQKPGQAPVLVVDDSDRPSGIPERFSGSNSGNTATLTISRVEAGDEADYYCQVFDGNCSHVVFGGGTKLTVLG",> 100 nM
2,"Ab0394 (antibody, IgG4, V domains shown) VH: QVTLKESGPVLVKPTETLTLTCTVSGFSLNNARVGVSWIRQPPGKALEWLAWIFSNDEKSYSTSLKSRLTISKDTSKSQVVLTMTNMDPVDTATYYCARSVVTGGYYYEGMDVWGQGTTVTVSS VL: CYVLTQPPSVSVAPGQTARITCGGNNIGSESVHWYQQKPGQAPVLVVDDSDRPSGIPERFSGSNSGNTATLTISRVEAGDEADYYCQVFDGNCSHVVFGGGTKLTVLG",> 100 nM
3,"Ab0391 (antibody, IgG4, V domains shown) VH: QVTLKESGPVLVKPTETLTLTCTVSGFSLNNARVGVSWIRQPPGKALEWLASIWSNDEKSYSTSLKSRLTISKDTSKSQVVLTMTNMDPVDTATYYCARSVVTGGYYYEGMDVWGQGTTVTVSS VL: SYVLTQPPSVSVAPGQTARITCGGNNIGSESVHWYQQKPGQAPVLVVDDSDRPSGIPERFSGSNSGNTATLTISRVEAGDEADYYCQVFDGNCSCVVFGGGTKLTVLG",> 100 nM
4,"Ab0397 (antibody, IgG4, V domains shown) VH: QVTLKESGPVLVKPTETLTLTCTVSGFSLNNARVGVSWIRQPPGKALEWLAHIWSNDEKSYSTSLKSRLTISKDTSKSQVVLTMTNMDPVDTATYYCARSVVTGGYYYEGMDVWGQGTTVTVSS VL: CYVLTQPPSVSVAPGQTARITCGGNNIGSESVHWYQQKPGQAPVLVVDDSDRPSGIPERFSGSNSGNTATLTISRVEAGDEADYYCQVFDGNCAHVVFGGGTKLTVLG",> 100 nM
5,"Ab0390 (antibody, IgG4, V domains shown) VH: QVTLKESGPVLVKPTETLTLTCTVSGFSLNNARVGVSWIRQPPGKALEWLAHIWSNDEKSYSTSLKSRLTISKDTSKSQVVLTMTNMDPVDTATYYCARSVVTGGYYYEGMDVWGQGTTVTVSS VL: SYVLTQPPSVSVAPGQTARITCGGNNIGSESVHWYQQKPGQAPVLVVDDSDRPSGIPERFSGSNSGNTATLTISRVEAGDEADYYCQVFDGNCSCVVFGGGTKLTVLG",> 100 nM

# Continued, values first:
row,EC50,Binder
1,> 100 nM,"Ab0392 (antibody, IgG4, V domains shown) VH: QVTLKESGPVLVKPTETLTLTCTVSGFSLNNARVGVSWIRQPPGKALEWLAWIFSNDEKSYSTSLKSRLTISKDTSKSQVVLTMTNMDPVDTATYYCARSVVTGGYYYEGMDVWGQGTTVTVSS VL: SYVLTQPPSVSVAPGQTARITCGGNNIGSESVHWYQQKPGQAPVLVVDDSDRPSGIPERFSGSNSGNTATLTISRVEAGDEADYYCQVFDGNSSHVVFGGGTKLTVLG"
2,> 100 nM,"Ab0393 (antibody, IgG4, V domains shown) VH: QVTLKESGPVLVKPTETLTLTCTVSGFSLNNARVGVSWIRQPPGKALEWLAWIFSNDEKSYSTSLKSRLTISKDTSKSQVVLTMTNMDPVDTATYYCARSVVTGGYYYEGMDVWGQGTTVTVSS VL: SYVLTQPPSVSVAPGQTARITCGGNNIGSESVHWYQQKPGQAPVLVVDDSDRPSGIPERFSGSNSGNTATLTISRVEAGDEADYYCQVFDGNCSCVVFGGGTKLTVLG"
3,> 100 nM,"Ab0396 (antibody, IgG4, V domains shown) VH: QVTLKESGPVLVKPTETLTLTCTVSGFSLNNARVGVSWIRQPPGKALEWLASIWSNDEKSYSTSLKSRLTISKDTSKSQVVLTMTNMDPVDTATYYCARSVVTGGYYYEGMDVWGQGTTVTVSS VL: SYVLTQPPSVSVAPGQTARITCGGNNIGSESVHWYQQKPGQAPVLVVDDSDRPSGIPERFSGSNSGNTATLTISRVEAGDEADYYCQVFDGNSAHVVFGGGTKLTVLG"
